Measurements as given in the supplement of paper PMC12764529.
± gives the half width of the 95% confidence interval.

Columns and labels:
[1] = folding stability dG unfold (combined trypsin and chymotrypsin); higher = more stable
In short: (§1)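 Only designs with AlphaFold2 dimer inter-PAE above 15 were retained; each was a mini-protein under 80 residues with no cysteine, in a PA-tagged cDNA display construct. After digestion with trypsin and chymotrypsin and sequencing, K50 was inferred by Bayesian fitting of counts, and unfolding free energy was derived per protease or combined against a sequence-predicted unfolded-state K50 and a shared folded-state K50.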

[2] = folding stability dG unfold from chymotrypsin proteolysis; higher = more stable
In short: as §1

[3] = folding stability dG unfold from trypsin proteolysis; higher = more stable
In short: as §1

Sequence | folding stability dG unfold [1] | folding stability dG unfold [2] | folding stability dG unfold [3]
SAGGSAGGSKMLLVKVYIEETKEEIVIEVPEGMTLEEIAERLRELGYKIKKIEVYELPPPPEESAGGSAGGS [r12_955_TrROS_Hall] | 4.11 ± 0.3 kcal/mol | 4.25 ± 0.078 kcal/mol | 3.82 ± 0.18 kcal/mol
SAPQIVEVKEYDPVSKTYTILAETPEGPLTVPVPAGGDTTVEEAIEQVKEYFEKTLPPGVELEIEKILLSAG [r14_422_JUSTAS] | 0.418 ± 0.093 kcal/mol | 0.271 ± 0.14 kcal/mol | 0.355 ± 0.08 kcal/mol
SAGGSAGGSAGGSIPPSDVTTEVDPNTPLTTVTYPSGVVVTETFPPDGTSTTTVDTAAGSAGGSAGGSAGGS [r10_170_JUSTAS] | 1.56 ± 0.039 kcal/mol | 1.23 ± 0.028 kcal/mol | 2.01 ± 0.038 kcal/mol
SAGGEGEPFRITPDEIQRIFNELAQDHGFNVSISEIQVPGDEVRITISIQHDGGTQSVRLPFRIEKDDSAGG [r13_652_TrROS] | 0.37 ± 0.21 kcal/mol | 0.191 ± 0.21 kcal/mol | 0.427 ± 0.2 kcal/mol
SAGGSAGGSARVFIVITYQNPGDGKPRQITIPIDIKDGKITLDDLKELFPGYPITNISIFPLSAGGSAGGSA [r18_494_TrROS] | 3.65 ± 0.13 kcal/mol | 3.58 ± 0.12 kcal/mol | 3.5 ± 0.14 kcal/mol
SAGGSSMKTSETTDPANGTPVRVETSIDPATNKVTTTVTTPDGTTVGSGTITIPPESSVTTTTTTTTPASAG [r5_747_JUSTAS] | 1.21 ± 0.11 kcal/mol | 1.49 ± 0.091 kcal/mol | 0.793 ± 0.079 kcal/mol
AVTVTVEPVGDALVVTVDLPRADGSPVRVVALFDPDGTVARVLVARSDPGPPRFVEVPAAPASDPVLLAAGS [r1_301_TrMRF] | 0.993 ± 0.13 kcal/mol | 1.38 ± 0.14 kcal/mol | 0.23 ± 0.2 kcal/mol
SAGGSAGGEYELLTFTLEFEVPPEVEHVEFEAELEDFDEILEVRARPDPETGTVRVEIVARARPSAGGSAGG [r6_712_TrMRF] | 2.28 ± 0.19 kcal/mol | 2.62 ± 0.06 kcal/mol | 1.46 ± 0.044 kcal/mol
SAGGSAGGSAETVTITLTVPPGASVEEILAALKAKYPDITSVSVERREDGYLKVTVTVRLDSAGGSAGGSAG [r3_371_TrROS_Hall] | 4.46 ± 0.074 kcal/mol | 4.02 ± 0.068 kcal/mol | 5.28 ± 0.47 kcal/mol
SAGGSAGGSAGKLPEGMKMEVRPKTIFNEDGYMIKITIIRAPDPNILAINIEIIPPGDPISAGGSAGGSAGG [r11_338_TrROS] | 2.14 ± 0.24 kcal/mol | 1.89 ± 0.14 kcal/mol | 2.04 ± 0.12 kcal/mol
SAGGSAKRKVEIEIYISREELEEAKKNGKEPTAEAQKQIHRIAKRAREEGMDTVEIKIIPPGQPIPSAGGSA [r15_304_TrROS] | 0.309 ± 0.28 kcal/mol | 0.785 ± 0.18 kcal/mol | -0.0963 ± 0.34 kcal/mol
SAGGSAGGSAGGKKLTFKAEIVSEEEIEINGKKYRIFKVKVTLPDGSKLTLTVIVELDDLSAGGSAGGSAGG [r7_846_TrROS_Hall] | 3.84 ± 0.096 kcal/mol | 4.22 ± 0.056 kcal/mol | 2.83 ± 0.036 kcal/mol
SAGGSAGGSAGMKIEVFPNTIKIYPENGKVLTFEAPDFGEEAIKEIAKAFPNAKIEPVEPSAGGSAGGSAGG [r17_545_TrMRF] | -0.189 ± 0.25 kcal/mol | -0.335 ± 0.16 kcal/mol | -0.338 ± 0.13 kcal/mol
SAGGSAGGSMFEEEEIEIERPDGTTIKVKVEILPDGTRVLTITDPKEGKTTTVTLSPNEEILLSAGGSAGGS [r20_45_JUSTAS] | 1.6 ± 0.12 kcal/mol | 0.464 ± 0.049 kcal/mol | 2.15 ± 0.12 kcal/mol
SAGVKPTPSGKNILEIDPETGKIRFVNNNGELFELPTGNDSLDAAIKEAVEKLGYPPDTPFNIDEIKIGSAG [r5_923_TrMRF] | 1.54 ± 0.19 kcal/mol | 1.76 ± 0.065 kcal/mol | 1.46 ± 0.044 kcal/mol
SAGGSAGGPFVLKFPDPKNMNKLQEAASDHGMNMNRNPEKGTHVINFGGNMLDELQELPGIEIVSAGGSAGG [r6_726_TrROS] | -0.769 ± 0.24 kcal/mol | -1.1 ± 0.61 kcal/mol | -1.05 ± 0.15 kcal/mol
SAGGMRIELVRTYIEEPDENGKLKGSGYREVLVLRPPPPVIRVPPELLEEAEELRKKLDGPVEPEELGSAGG [r19_315_JUSTAS] | 3.84 ± 0.42 kcal/mol | 3.6 ± 0.18 kcal/mol | 3.63 ± 0.38 kcal/mol
SAGGSAGGSAGEKVKLVITTTVTLPALDPEGGEFVGPVTFTETIVLDMNPEDAARLLAAASAGGSAGGSAGG [r17_283_TrMRF] | 2.23 ± 0.056 kcal/mol | 2.675 ± 0.013 kcal/mol | 1.4 ± 0.034 kcal/mol
SAGMPETITIKIRNPETGKLYEIEIEKVDGEVKVTIRDVETGKERREITMTPEEVRELLKELGFEVEEVSAG [r5_291_TrROS_Hall] | 2.63 ± 0.059 kcal/mol | 3.1 ± 0.056 kcal/mol | 1.42 ± 0.049 kcal/mol
SAGGSMLEVYYRIPPDIPLEEALERVAREVEEVLRARYGGPVTVEAEEVERPPDDETLLRVLVRFESAGGSA [r2_214_TrMRF] | 2.37 ± 0.11 kcal/mol | 2.558 ± 0.024 kcal/mol | 1.7 ± 0.03 kcal/mol
SAGGSAGGSKNVKTVTIPFNNMSPSKFIEQIKNHPVDAIEIEMPDPWYRRFLNWLKDEGIKVISAGGSAGGS [r12_610_TrROS] | 1.49 ± 0.12 kcal/mol | 1.49 ± 0.18 kcal/mol | 1.27 ± 0.053 kcal/mol

Sequence | folding stability dG unfold [1] | folding stability dG unfold [2] | folding stability dG unfold [3]
SAGGSMNPYSETITVNLPVPTPSGGSVVRPVTVPISIVYEDEKELEEALKKAKEEAEAAARKALGLESAGGS [r16_339_JUSTAS] | 1.05 ± 0.11 kcal/mol | 0.685 ± 0.069 kcal/mol | 1.37 ± 0.067 kcal/mol
SAIVIPIRVQMPPNDPDALEQAKEIADYIADMMMEEGYPFKIEVDDIEWERNPNGHWTVEIPIKIKPPPSAG [r14_48_TrROS] | 1.38 ± 0.15 kcal/mol | 1.25 ± 0.083 kcal/mol | 1.45 ± 0.18 kcal/mol
SSMTTTEKKYTYNDSSISVSTTTLPDGSKLITTPITRKNPDGIDVTETLTTLDKGSGVTPVSPSTSTLNTSA [r9_554_JUSTAS] | 0.177 ± 0.069 kcal/mol | 0.602 ± 0.035 kcal/mol | -1.24 ± 0.18 kcal/mol
SAGGSAGGSAMTPDETRTVVVEEELPNGEPVVRVTDVRTLPDGSLETLGERVITREELEERSAGGSAGGSAG [r3_212_JUSTAS] | 0.394 ± 0.11 kcal/mol | 0.743 ± 0.064 kcal/mol | -0.438 ± 0.2 kcal/mol
SAGGSAGGMKIKVKFTITKSDPNSDSPVPRVITKEFESLEEAEKEFNKLKNLPSGYTVEVEIVESAGGSAGG [r7_0_JUSTAS] | 3.62 ± 0.1 kcal/mol | 3.82 ± 0.043 kcal/mol | 3.16 ± 0.11 kcal/mol
SAGGSAGGSAGGKPVIYRIEVRLPDSPEREIFEIEVPPDRPEVAEELAKLLGPNVKMEPLSAGGSAGGSAGG [r11_250_TrMRF] | -0.387 ± 0.38 kcal/mol | -0.577 ± 0.49 kcal/mol | -0.166 ± 0.1 kcal/mol
SAGGSAGGSAGGMKPGEKPEVEYRVRIYDADTGEWREVPLEDLKKLKLPPGAVVEIEKVSAGGSAGGSAGGS [r10_1121_TrROS_Hall] | 2.93 ± 0.15 kcal/mol | 3.42 ± 0.067 kcal/mol | 2.01 ± 0.14 kcal/mol
SAMVEVRIEYDEETGEIRIEVRAEEEGEELTEEEIEELARELAEELGLPVEIKEIRVEKAPEVEEVVLESAG [r14_556_TrROS_Hall] | 0.884 ± 0.3 kcal/mol | 0.757 ± 0.1 kcal/mol | 1.05 ± 0.18 kcal/mol
SAGGSAGDLELIGVFPFTLPDGRRITVPIFRDPSTGERYLFAETEGEEEDLTPAAIETALAVLERESAGGSA [r15_529_TrMRF] | 2.05 ± 0.084 kcal/mol | 2.09 ± 0.037 kcal/mol | 1.87 ± 0.051 kcal/mol
SAGGSAGGSAGGSKKKKKKKKKKVVKLTVLIEKDGELYLVEIEFDKDGKIVSISVEKLPSAGGSAGGSAGGS [r4_192_TrROS_Hall] | 3.27 ± 0.32 kcal/mol | 4 ± 0.27 kcal/mol | 2.12 ± 0.16 kcal/mol
SAGGGSSVLSETVSVDPNNVTTTTTTYKAGDTTSTTTTTTTTTPPVPNLPLPPPPPVSPEAIALGLLLSAGG [r13_760_JUSTAS] | 0.481 ± 0.059 kcal/mol | -0.0352 ± 0.18 kcal/mol | 0.648 ± 0.052 kcal/mol
SAGGSAGGSSPVPVKVSANSVEPGESSSSNINIPKEALEKDSLTPEELKKILQKQGPNVTITGSAGGSAGGS [r20_221_JUSTAS] | -0.0407 ± 0.23 kcal/mol | 0.124 ± 0.049 kcal/mol | -0.423 ± 0.086 kcal/mol
SAGGSKIPLDNIKVITIMYNPKEGMYWISIRFPNNGKEVVFPYEDAPKILEKFPEIKEIEVYPFPPSAGGSA [r2_159_TrROS] | 2.59 ± 0.084 kcal/mol | 2.76 ± 0.036 kcal/mol | 2.25 ± 0.11 kcal/mol
SAEELAEAEARRLGVDPAAVALEVTEEVDPLTGKPRKIVTVTIALPDRAYVITVDASDGTVLERRPLEAASA [r9_1219_JUSTAS] | 2.28 ± 0.081 kcal/mol | 2.15 ± 0.034 kcal/mol | 2.33 ± 0.051 kcal/mol
SAGGSAGGSAPSKKVKFKVLAKNTKTGKYKEIDITAEVPVSNGKVVSIEELLKKFPDFELKPSAGGSAGGSA [r18_267_TrMRF] | 0.172 ± 0.21 kcal/mol | 0.0845 ± 0.38 kcal/mol | 0.342 ± 0.11 kcal/mol
SAGGSAGGMLRVRVETTLPGSGETLDLELEFPSEEEARRAIEALVPPEERAEVRVEFLPPGVPESAGGSAGG [r6_657_JUSTAS] | 1.06 ± 0.1 kcal/mol | 1.44 ± 0.08 kcal/mol | -0.156 ± 0.37 kcal/mol
SAGGSAGGMKIEPIAEDEDYIVVRVEPDLPELLEELGLEVVGVEEEGDYVIVVVKVPPEVREKFSAGGSAGG [r6_108_TrMRF] | 0.336 ± 0.11 kcal/mol | -0.0352 ± 0.11 kcal/mol | 0.649 ± 0.022 kcal/mol
SAGGSAGGSASVKELAEKLAEPGQTVMVIKRDGKEYLIVMSDEEAEALRKLFPDMEIERVRLSAGGSAGGSA [r18_198_TrROS_Hall] | 1.81 ± 0.062 kcal/mol | 1.93 ± 0.023 kcal/mol | 1.59 ± 0.02 kcal/mol
SAGGSAGGSAGGPKGYFRIRIEIPNGQKREIWFPPDDAEEWVKSLGIPEENVKITKIEPYSAGGSAGGSAGG [r7_211_TrROS] | 0.868 ± 0.18 kcal/mol | 0.874 ± 0.27 kcal/mol | 0.506 ± 0.15 kcal/mol
SAGGSAGGSAGGWAFMWVIEIEMPPEQMPPEDMKKFPNMRIEIEPYWVPIKIDPENGELRSAGGSAGGSAGG [r17_310_TrROS] | 2.5 ± 0.19 kcal/mol | 2.68 ± 0.04 kcal/mol | 1.71 ± 0.075 kcal/mol
SAGGSAGGKKKKKKKKKYYTFVLKVKEKDLTPEEIKKLFPNVKIEKKDGYLVITVKVNGKEIKFSAGGSAGG [r6_738_TrROS_Hall] | 2.11 ± 0.31 kcal/mol | 2.66 ± 0.12 kcal/mol | 1.43 ± 0.19 kcal/mol
